Abundance fitness data for 50 variants are collected here from the Human Domainome abundance scans (Beltran et al. 2025).

The chains are these.
B1: Homeobox protein SIX3, residues 212 to 262; numbered along this chain, O95343 (parent)
chain: CFKERTRSLLREWYLQDPYPNPSKKRELAQATGLTPTQVGNWFKNRRQRDR
B2: Tumor protein p73, residues 487 to 549; numbered along this chain, O15350 (parent)
chain: YHADPSLVSFLTGLGCPNCIEYFTSQGLQSIYHLQNLTIEDLGALKIPEQYRMTIWRGLQDLK

± gives the uncertainty stated by the source.

One data set covers variants of B1. Nature of the data set: abundance fitness (aPCA) (normalised: wild type 0, dead -1); higher = more abundant; growth selection in yeast, the domain comes from the species named. The settings on record: Homo sapiens.
Consider CFKDRTRSLLREWYLQDPYPNPSKKRELAQATGLTPTQVGNWFKNRRQRDR [E4D], for which the abundance fitness was -0.532 ± 0.47.

As for CFKARTRSLLREWYLQDPYPNPSKKRELAQATGLTPTQVGNWFKNRRQRDR [E4A], the abundance fitness was -0.931 ± 0.2.

Regarding CFKSRTRSLLREWYLQDPYPNPSKKRELAQATGLTPTQVGNWFKNRRQRDR [E4S], the abundance fitness is -0.136 ± 0.065.

On to CFKVRTRSLLREWYLQDPYPNPSKKRELAQATGLTPTQVGNWFKNRRQRDR [E4V], for which the abundance fitness was -0.651 ± 0.071.

For the variant CFKKRTRSLLREWYLQDPYPNPSKKRELAQATGLTPTQVGNWFKNRRQRDR [E4K], the abundance fitness was -0.152 ± 0.14.

In the case of CFVERTRSLLREWYLQDPYPNPSKKRELAQATGLTPTQVGNWFKNRRQRDR [K3V], the abundance fitness was -0.655 ± 0.12.

CFMERTRSLLREWYLQDPYPNPSKKRELAQATGLTPTQVGNWFKNRRQRDR [K3M]: the abundance fitness is -0.624 ± 0.2.

For CFCERTRSLLREWYLQDPYPNPSKKRELAQATGLTPTQVGNWFKNRRQRDR [K3C], the abundance fitness stood at 0.158 ± 0.12.

As to CFTERTRSLLREWYLQDPYPNPSKKRELAQATGLTPTQVGNWFKNRRQRDR [K3T], the abundance fitness was -0.134 ± 0.11.

Turning to CFHERTRSLLREWYLQDPYPNPSKKRELAQATGLTPTQVGNWFKNRRQRDR [K3H], the abundance fitness was -0.72 ± 0.4.

Regarding CFRERTRSLLREWYLQDPYPNPSKKRELAQATGLTPTQVGNWFKNRRQRDR [K3R], the abundance fitness is -0.275 ± 0.047.

Regarding CFSERTRSLLREWYLQDPYPNPSKKRELAQATGLTPTQVGNWFKNRRQRDR [K3S], the abundance fitness was -0.106 ± 0.1.

For CFNERTRSLLREWYLQDPYPNPSKKRELAQATGLTPTQVGNWFKNRRQRDR [K3N], the abundance fitness was 0.165 ± 0.069.

On to CFIERTRSLLREWYLQDPYPNPSKKRELAQATGLTPTQVGNWFKNRRQRDR [K3I], for which the abundance fitness is -0.362 ± 0.18.

Consider CFPERTRSLLREWYLQDPYPNPSKKRELAQATGLTPTQVGNWFKNRRQRDR [K3P], for which the abundance fitness was -0.39 ± 0.071.

CFQERTRSLLREWYLQDPYPNPSKKRELAQATGLTPTQVGNWFKNRRQRDR [K3Q]: the abundance fitness was -0.216 ± 0.2.

As to CFYERTRSLLREWYLQDPYPNPSKKRELAQATGLTPTQVGNWFKNRRQRDR [K3Y], the abundance fitness is -0.262 ± 0.095.

As for CFEERTRSLLREWYLQDPYPNPSKKRELAQATGLTPTQVGNWFKNRRQRDR [K3E], the abundance fitness turned out to be 0.074 ± 0.062.

Regarding CFAERTRSLLREWYLQDPYPNPSKKRELAQATGLTPTQVGNWFKNRRQRDR [K3A], the abundance fitness was -0.3 ± 0.037.

In the case of CFDERTRSLLREWYLQDPYPNPSKKRELAQATGLTPTQVGNWFKNRRQRDR [K3D], the abundance fitness is -0.037 ± 0.068.

Consider CFKERTFSLLREWYLQDPYPNPSKKRELAQATGLTPTQVGNWFKNRRQRDR [R7F], for which the abundance fitness was -0.419 ± 0.3.

For the variant CFKERTDSLLREWYLQDPYPNPSKKRELAQATGLTPTQVGNWFKNRRQRDR [R7D], the abundance fitness is -0.26 ± 0.18.

As for CFKERTESLLREWYLQDPYPNPSKKRELAQATGLTPTQVGNWFKNRRQRDR [R7E], the abundance fitness was -0.181 ± 0.11.

Turning to CFKEHTRSLLREWYLQDPYPNPSKKRELAQATGLTPTQVGNWFKNRRQRDR [R5H], the abundance fitness is -0.522 ± 0.21.

For the variant CFKEKTRSLLREWYLQDPYPNPSKKRELAQATGLTPTQVGNWFKNRRQRDR [R5K], the abundance fitness is -0.394 ± 0.31.

Regarding CFKEATRSLLREWYLQDPYPNPSKKRELAQATGLTPTQVGNWFKNRRQRDR [R5A], the abundance fitness is -0.075 ± 0.09.

As to CFKELTRSLLREWYLQDPYPNPSKKRELAQATGLTPTQVGNWFKNRRQRDR [R5L], the abundance fitness is -0.283 ± 0.1.

On to CFKEWTRSLLREWYLQDPYPNPSKKRELAQATGLTPTQVGNWFKNRRQRDR [R5W], for which the abundance fitness is -0.369 ± 0.12.

Regarding CFKESTRSLLREWYLQDPYPNPSKKRELAQATGLTPTQVGNWFKNRRQRDR [R5S], the abundance fitness was 0.187 ± 0.089.

As to CFKECTRSLLREWYLQDPYPNPSKKRELAQATGLTPTQVGNWFKNRRQRDR [R5C], the abundance fitness is -0.359 ± 0.39.

Turning to CFKEITRSLLREWYLQDPYPNPSKKRELAQATGLTPTQVGNWFKNRRQRDR [R5I], the abundance fitness was -0.418 ± 0.23.

Regarding CFKEGTRSLLREWYLQDPYPNPSKKRELAQATGLTPTQVGNWFKNRRQRDR [R5G], the abundance fitness was -0.102 ± 0.083.

Take CFKENTRSLLREWYLQDPYPNPSKKRELAQATGLTPTQVGNWFKNRRQRDR [R5N]: the abundance fitness was -0.225 ± 0.15.

With CFKEDTRSLLREWYLQDPYPNPSKKRELAQATGLTPTQVGNWFKNRRQRDR [R5D], the abundance fitness was -0.18 ± 0.16.

CFKETTRSLLREWYLQDPYPNPSKKRELAQATGLTPTQVGNWFKNRRQRDR [R5T]: the abundance fitness was -0.148 ± 0.091.

As for CFKEETRSLLREWYLQDPYPNPSKKRELAQATGLTPTQVGNWFKNRRQRDR [R5E], the abundance fitness was -0.098 ± 0.095.

In the case of CFKEYTRSLLREWYLQDPYPNPSKKRELAQATGLTPTQVGNWFKNRRQRDR [R5Y], the abundance fitness was -0.455 ± 0.24.

CFKEMTRSLLREWYLQDPYPNPSKKRELAQATGLTPTQVGNWFKNRRQRDR [R5M]: the abundance fitness is -0.16 ± 0.1.

For the variant CFKEPTRSLLREWYLQDPYPNPSKKRELAQATGLTPTQVGNWFKNRRQRDR [R5P], the abundance fitness is -0.329 ± 0.13.

On to CFKEQTRSLLREWYLQDPYPNPSKKRELAQATGLTPTQVGNWFKNRRQRDR [R5Q], for which the abundance fitness was -0.317 ± 0.093.

CFKEVTRSLLREWYLQDPYPNPSKKRELAQATGLTPTQVGNWFKNRRQRDR [R5V]: the abundance fitness turned out to be 0.003 ± 0.059.

Variants of B2 are the subject of another data set. The description is as above. The settings on record: Homo sapiens.
On to YHADPSLVSFLTGLGCPNCIEYFTSQGLQSIYHLQNLTIEDLGALKIPEQYRMTIWRGLQDLL [K63L], for which the abundance fitness is -0.261 ± 0.087.

Turning to YHADPSLVSFLTGLGCPNCIEYFTSQGLQSIYHLQNLTIEDLGALKIPEQYRMTIWRGLQDLQ [K63Q], the abundance fitness was 0.074 ± 0.28.

Consider YHADPSLVSFLTGLGCPNCIEYFTSQGLQSIYHLQNLTIEDLGALKIPEQYRMTIWRGLQDLH [K63H], for which the abundance fitness is -0.34 ± 0.37.

Take YHADPSLVSFLTGLGCPNCIEYFTSQGLQSIYHLQNLTIEDLGALKIPEQYRMTIWRGLQDLS [K63S]: the abundance fitness turned out to be 0 ± 0.058.

As to YHADPSLVSFLTGLGCPNCIEYFTSQGLQSIYHLQNLTIEDLGALKIPEQYRMTIWRGLQDLR [K63R], the abundance fitness was -0.159 ± 0.14.

Take YHADPSLVSFLTGLGCPNCIEYFTSQGLQSIYHLQNLTIEDLGALKIPEQYRMTIWRGLQDLW [K63W]: the abundance fitness was -0.044 ± 0.25.

YHADPSLVSFLTGLGCPNCIEYFTSQGLQSIYHLQNLTIEDLGALKIPEQYRMTIWRGLQDLT [K63T]: the abundance fitness is 0.172 ± 0.14.

Take YHADPSLVSFLTGLGCPNCIEYFTSQGLQSIYHLQNLTIEDLGALKIPEQYRMTIWRGLQDLP [K63P]: the abundance fitness is -0.394 ± 0.38.

As to YHADPSLVSFLTGLGCPNCIEYFTSQGLQSIYHLQNLTIEDLGALKIPEQYRMTIWRGLQDLN [K63N], the abundance fitness was -0.245 ± 0.3.
